This note sets out measurements from the RNAGym collection of RNA variant scans (doi:10.1021/acssynbio.7b00057).

The chains are these.
B1: Pistol ribozyme (parent)
chain: GGGUCGUUGUUCCAUAAUCGCGUGGAUAUGGCACGCAAGUUUCUACCGGGCACCGUAAAUGUCCGACUGGAGCCGUUCGGGCGGCUAUAAACAGACCUCAGGCCCGAAGCGUGGCGGCACCUGCCGCCGGUGGUAAAAAAGAUCGGAAGAGCACACGUCU

Variants of B1 are the subject of the series. As to the kind of experiment: aptazyme ON/OFF ratio, guanine; higher = stronger switching; co-transcriptional cleavage with and without guanine.
As to GGGUCGUUGAUCCAUAAUCGCGUGGAUAUGGCACGCAAGUUUCUACCGGGCACCGUAAAUGUCCGACUGGAGCCGUUCGGGCGGCUAUAAACAGACCUCAGGCCCGAAGCGUGGCGGCACCUGCCGCCGGUGGUAAAAAAGAUCGGAAGAGCACACGUCU, the “aptazyme ON/OFF ratio” value was determined as 1.15.

On to GGGUCGUUGAUUUAUAAUCGCGUGGAUAUGGCACGCAAGUUUCUACCGGGCACCGUAAAUGUCCGACUGGAGCCGUUCGGGCGGCUAUAAACAGACCUCAGGCCCGAAGCGUGGCGGCACCUGCCGCCGGUGGUAAAAAAGAUCGGAAGAGCACACGUCU, for which the “aptazyme ON/OFF ratio” value amounted to 1.54.

In the case of GGGUCGUUGAUUGAUAAUCGCGUGGAUAUGGCACGCAAGUUUCUACCGGGCACCGUAAAUGUCCGACUGGAGCCGUUCGGGCGGCUAUAAACAGACCUCAGGCCCGAAGCGUGGCGGCACCUGCCGCCGGUGGUAAAAAAGAUCGGAAGAGCACACGUCU, the “aptazyme ON/OFF ratio” value was found to be 1.33.

With GGGUCGUUGAUUAAUAAUCGCGUGGAUAUGGCACGCAAGUUUCUACCGGGCACCGUAAAUGUCCGACUGGAGCCGUUCGGGCGGCUAUAAACAGACCUCAGGCCCGAAGCGUGGCGGCACCUGCCGCCGGUGGUAAAAAAGAUCGGAAGAGCACACGUCU, the “aptazyme ON/OFF ratio” value is 1.3.

For GGGUCGUUGAAACAUAAUCGCGUGGAUAUGGCACGCAAGUUUCUACCGGGCACCGUAAAUGUCCGACUGGAGCCGUUCGGGCGGCUAUAAACAGACCUCAGGCCCGAAGCGUGGCGGCACCUGCCGCCGGUGGUAAAAAAGAUCGGAAGAGCACACGUCU, the “aptazyme ON/OFF ratio” value worked out at 1.18.

For GGGUCGUUGAACCAUAAUCGCGUGGAUAUGGCACGCAAGUUUCUACCGGGCACCGUAAAUGUCCGACUGGAGCCGUUCGGGCGGCUAUAAACAGACCUCAGGCCCGAAGCGUGGCGGCACCUGCCGCCGGUGGUAAAAAAGAUCGGAAGAGCACACGUCU, the “aptazyme ON/OFF ratio” value was 1.73.

Regarding GGGUCGUUGAUAUAUAAUCGCGUGGAUAUGGCACGCAAGUUUCUACCGGGCACCGUAAAUGUCCGACUGGAGCCGUUCGGGCGGCUAUAAACAGACCUCAGGCCCGAAGCGUGGCGGCACCUGCCGCCGGUGGUAAAAAAGAUCGGAAGAGCACACGUCU, the “aptazyme ON/OFF ratio” value amounted to 1.31.

As to GGGUCGUUGAUAGAUAAUCGCGUGGAUAUGGCACGCAAGUUUCUACCGGGCACCGUAAAUGUCCGACUGGAGCCGUUCGGGCGGCUAUAAACAGACCUCAGGCCCGAAGCGUGGCGGCACCUGCCGCCGGUGGUAAAAAAGAUCGGAAGAGCACACGUCU, the “aptazyme ON/OFF ratio” value amounted to 1.19.

For the variant GGGUCGUUGAUAAAUAAUCGCGUGGAUAUGGCACGCAAGUUUCUACCGGGCACCGUAAAUGUCCGACUGGAGCCGUUCGGGCGGCUAUAAACAGACCUCAGGCCCGAAGCGUGGCGGCACCUGCCGCCGGUGGUAAAAAAGAUCGGAAGAGCACACGUCU, the “aptazyme ON/OFF ratio” value stood at 1.22.

Regarding GGGUCGUUUUGGCAUAAUCGCGUGGAUAUGGCACGCAAGUUUCUACCGGGCACCGUAAAUGUCCGACUGGAGCCGUUCGGGCGGCUAUAAACAGACCUCAGGCCCGAAGCGUGGCGGCACCUGCCGCCGGUGGUAAAAAAGAUCGGAAGAGCACACGUCU, the “aptazyme ON/OFF ratio” value is 2.82.

Take GGGUCGUUUUGUCAUAAUCGCGUGGAUAUGGCACGCAAGUUUCUACCGGGCACCGUAAAUGUCCGACUGGAGCCGUUCGGGCGGCUAUAAACAGACCUCAGGCCCGAAGCGUGGCGGCACCUGCCGCCGGUGGUAAAAAAGAUCGGAAGAGCACACGUCU: the “aptazyme ON/OFF ratio” value came to 1.99.

GGGUCGUUUUGACAUAAUCGCGUGGAUAUGGCACGCAAGUUUCUACCGGGCACCGUAAAUGUCCGACUGGAGCCGUUCGGGCGGCUAUAAACAGACCUCAGGCCCGAAGCGUGGCGGCACCUGCCGCCGGUGGUAAAAAAGAUCGGAAGAGCACACGUCU: the “aptazyme ON/OFF ratio” value was 2.21.

Take GGGUCGUUUUGGUAUAAUCGCGUGGAUAUGGCACGCAAGUUUCUACCGGGCACCGUAAAUGUCCGACUGGAGCCGUUCGGGCGGCUAUAAACAGACCUCAGGCCCGAAGCGUGGCGGCACCUGCCGCCGGUGGUAAAAAAGAUCGGAAGAGCACACGUCU: the “aptazyme ON/OFF ratio” value came out at 1.21.

GGGUCGUUUUGGAAUAAUCGCGUGGAUAUGGCACGCAAGUUUCUACCGGGCACCGUAAAUGUCCGACUGGAGCCGUUCGGGCGGCUAUAAACAGACCUCAGGCCCGAAGCGUGGCGGCACCUGCCGCCGGUGGUAAAAAAGAUCGGAAGAGCACACGUCU: the “aptazyme ON/OFF ratio” value stood at 1.49.

As to GGGUCGUUUUGGGAUAAUCGCGUGGAUAUGGCACGCAAGUUUCUACCGGGCACCGUAAAUGUCCGACUGGAGCCGUUCGGGCGGCUAUAAACAGACCUCAGGCCCGAAGCGUGGCGGCACCUGCCGCCGGUGGUAAAAAAGAUCGGAAGAGCACACGUCU, the “aptazyme ON/OFF ratio” value was determined as 1.36.

Regarding GGGUCGUUGAUCGAUAAUCGCGUGGAUAUGGCACGCAAGUUUCUACCGGGCACCGUAAAUGUCCGACUGGAGCCGUUCGGGCGGCUAUAAACAGACCUCAGGCCCGAAGCGUGGCGGCACCUGCCGCCGGUGGUAAAAAAGAUCGGAAGAGCACACGUCU, the “aptazyme ON/OFF ratio” value is 1.1.

As to GGGUCGUUGAUCUAUAAUCGCGUGGAUAUGGCACGCAAGUUUCUACCGGGCACCGUAAAUGUCCGACUGGAGCCGUUCGGGCGGCUAUAAACAGACCUCAGGCCCGAAGCGUGGCGGCACCUGCCGCCGGUGGUAAAAAAGAUCGGAAGAGCACACGUCU, the “aptazyme ON/OFF ratio” value was determined as 1.08.

In the case of GGGUCGUUGAUCAAUAAUCGCGUGGAUAUGGCACGCAAGUUUCUACCGGGCACCGUAAAUGUCCGACUGGAGCCGUUCGGGCGGCUAUAAACAGACCUCAGGCCCGAAGCGUGGCGGCACCUGCCGCCGGUGGUAAAAAAGAUCGGAAGAGCACACGUCU, the “aptazyme ON/OFF ratio” value came out at 1.11.

Regarding GGGUCGUUGAUGCAUAAUCGCGUGGAUAUGGCACGCAAGUUUCUACCGGGCACCGUAAAUGUCCGACUGGAGCCGUUCGGGCGGCUAUAAACAGACCUCAGGCCCGAAGCGUGGCGGCACCUGCCGCCGGUGGUAAAAAAGAUCGGAAGAGCACACGUCU, the “aptazyme ON/OFF ratio” value stood at 1.65.

As to GGGUCGUUGAUUCAUAAUCGCGUGGAUAUGGCACGCAAGUUUCUACCGGGCACCGUAAAUGUCCGACUGGAGCCGUUCGGGCGGCUAUAAACAGACCUCAGGCCCGAAGCGUGGCGGCACCUGCCGCCGGUGGUAAAAAAGAUCGGAAGAGCACACGUCU, the “aptazyme ON/OFF ratio” value was found to be 1.16.

Turning to GGGUCGUUGAUACAUAAUCGCGUGGAUAUGGCACGCAAGUUUCUACCGGGCACCGUAAAUGUCCGACUGGAGCCGUUCGGGCGGCUAUAAACAGACCUCAGGCCCGAAGCGUGGCGGCACCUGCCGCCGGUGGUAAAAAAGAUCGGAAGAGCACACGUCU, the “aptazyme ON/OFF ratio” value was 1.62.

With GGGUCGUUUUGCUAUAAUCGCGUGGAUAUGGCACGCAAGUUUCUACCGGGCACCGUAAAUGUCCGACUGGAGCCGUUCGGGCGGCUAUAAACAGACCUCAGGCCCGAAGCGUGGCGGCACCUGCCGCCGGUGGUAAAAAAGAUCGGAAGAGCACACGUCU, the “aptazyme ON/OFF ratio” value turned out to be 1.7.

GGGUCGUUUUGCGAUAAUCGCGUGGAUAUGGCACGCAAGUUUCUACCGGGCACCGUAAAUGUCCGACUGGAGCCGUUCGGGCGGCUAUAAACAGACCUCAGGCCCGAAGCGUGGCGGCACCUGCCGCCGGUGGUAAAAAAGAUCGGAAGAGCACACGUCU: the “aptazyme ON/OFF ratio” value worked out at 1.21.

Regarding GGGUCGUUUUGCAAUAAUCGCGUGGAUAUGGCACGCAAGUUUCUACCGGGCACCGUAAAUGUCCGACUGGAGCCGUUCGGGCGGCUAUAAACAGACCUCAGGCCCGAAGCGUGGCGGCACCUGCCGCCGGUGGUAAAAAAGAUCGGAAGAGCACACGUCU, the “aptazyme ON/OFF ratio” value came out at 1.37.

GGGUCGUUGAUGGAUAAUCGCGUGGAUAUGGCACGCAAGUUUCUACCGGGCACCGUAAAUGUCCGACUGGAGCCGUUCGGGCGGCUAUAAACAGACCUCAGGCCCGAAGCGUGGCGGCACCUGCCGCCGGUGGUAAAAAAGAUCGGAAGAGCACACGUCU: the “aptazyme ON/OFF ratio” value is 1.17.

For GGGUCGUUGAUGUAUAAUCGCGUGGAUAUGGCACGCAAGUUUCUACCGGGCACCGUAAAUGUCCGACUGGAGCCGUUCGGGCGGCUAUAAACAGACCUCAGGCCCGAAGCGUGGCGGCACCUGCCGCCGGUGGUAAAAAAGAUCGGAAGAGCACACGUCU, the “aptazyme ON/OFF ratio” value was 1.47.

With GGGUCGUUGAUGAAUAAUCGCGUGGAUAUGGCACGCAAGUUUCUACCGGGCACCGUAAAUGUCCGACUGGAGCCGUUCGGGCGGCUAUAAACAGACCUCAGGCCCGAAGCGUGGCGGCACCUGCCGCCGGUGGUAAAAAAGAUCGGAAGAGCACACGUCU, the “aptazyme ON/OFF ratio” value was found to be 1.4.

Consider GGGUCGUUGAAAAAUAAUCGCGUGGAUAUGGCACGCAAGUUUCUACCGGGCACCGUAAAUGUCCGACUGGAGCCGUUCGGGCGGCUAUAAACAGACCUCAGGCCCGAAGCGUGGCGGCACCUGCCGCCGGUGGUAAAAAAGAUCGGAAGAGCACACGUCU, for which the “aptazyme ON/OFF ratio” value stood at 1.39.

As for GGGUCGUUGAAAGAUAAUCGCGUGGAUAUGGCACGCAAGUUUCUACCGGGCACCGUAAAUGUCCGACUGGAGCCGUUCGGGCGGCUAUAAACAGACCUCAGGCCCGAAGCGUGGCGGCACCUGCCGCCGGUGGUAAAAAAGAUCGGAAGAGCACACGUCU, the “aptazyme ON/OFF ratio” value stood at 1.18.

With GGGUCGUUGAAAUAUAAUCGCGUGGAUAUGGCACGCAAGUUUCUACCGGGCACCGUAAAUGUCCGACUGGAGCCGUUCGGGCGGCUAUAAACAGACCUCAGGCCCGAAGCGUGGCGGCACCUGCCGCCGGUGGUAAAAAAGAUCGGAAGAGCACACGUCU, the “aptazyme ON/OFF ratio” value is 1.47.

Consider GGGUCGUUUUGAGAUAAUCGCGUGGAUAUGGCACGCAAGUUUCUACCGGGCACCGUAAAUGUCCGACUGGAGCCGUUCGGGCGGCUAUAAACAGACCUCAGGCCCGAAGCGUGGCGGCACCUGCCGCCGGUGGUAAAAAAGAUCGGAAGAGCACACGUCU, for which the “aptazyme ON/OFF ratio” value is 1.32.

Turning to GGGUCGUUUUGAUAUAAUCGCGUGGAUAUGGCACGCAAGUUUCUACCGGGCACCGUAAAUGUCCGACUGGAGCCGUUCGGGCGGCUAUAAACAGACCUCAGGCCCGAAGCGUGGCGGCACCUGCCGCCGGUGGUAAAAAAGAUCGGAAGAGCACACGUCU, the “aptazyme ON/OFF ratio” value is 1.36.

Consider GGGUCGUUUUGAAAUAAUCGCGUGGAUAUGGCACGCAAGUUUCUACCGGGCACCGUAAAUGUCCGACUGGAGCCGUUCGGGCGGCUAUAAACAGACCUCAGGCCCGAAGCGUGGCGGCACCUGCCGCCGGUGGUAAAAAAGAUCGGAAGAGCACACGUCU, for which the “aptazyme ON/OFF ratio” value is 1.31.

On to GGGUCGUUUUGUGAUAAUCGCGUGGAUAUGGCACGCAAGUUUCUACCGGGCACCGUAAAUGUCCGACUGGAGCCGUUCGGGCGGCUAUAAACAGACCUCAGGCCCGAAGCGUGGCGGCACCUGCCGCCGGUGGUAAAAAAGAUCGGAAGAGCACACGUCU, for which the “aptazyme ON/OFF ratio” value stood at 1.43.

With GGGUCGUUUUGUUAUAAUCGCGUGGAUAUGGCACGCAAGUUUCUACCGGGCACCGUAAAUGUCCGACUGGAGCCGUUCGGGCGGCUAUAAACAGACCUCAGGCCCGAAGCGUGGCGGCACCUGCCGCCGGUGGUAAAAAAGAUCGGAAGAGCACACGUCU, the “aptazyme ON/OFF ratio” value was 1.29.

For GGGUCGUUUUGUAAUAAUCGCGUGGAUAUGGCACGCAAGUUUCUACCGGGCACCGUAAAUGUCCGACUGGAGCCGUUCGGGCGGCUAUAAACAGACCUCAGGCCCGAAGCGUGGCGGCACCUGCCGCCGGUGGUAAAAAAGAUCGGAAGAGCACACGUCU, the “aptazyme ON/OFF ratio” value was 1.43.
